{
  "source": "patent US8691225B2",
  "about": "“Antibodies against the ectodomain of ErbB3 and uses thereof” (Merrimack Pharmaceuticals, Inc., priority 2007, dated 2014)",
  "molecules": {"B1": {"name": "Ab #6: human anti-ErbB3 antibody from Fab-phage library, CDRs SEQ ID NOs:7-12; used as IgG1 and IgG2 isotypes; in phase I trials as MM-121 (antibody, V domains shown)", "VH": "EVQLLESGGGLVQPGGSLRLSCAASGFTFSHYVMAWVRQAPGKGLEWVSSISSSGGWTLYADSVKGRFTISRDNSKNTLYLQMNSLRAEDTAVYYCTRGLKMATIFDYWGQGTLVTVSS", "VL": "QSALTQPASVSGSPGQSITISCTGTSSDVGSYNVVSWYQQHPGKAPKLIIYEVSQRPSGVSNRFSGSKSGNTASLTISGLQTEDEADYYCCSYAGSSIFVIFGGGTKVTVL"}},
  "key": {"[1]": {"target": "T1, recombinant human EGFR ectodomain (Homo sapiens, UniProt P00533)", "T1 construct": "recombinant human EGFR ectodomain", "assay": "binding specificity ELISA", "details": "IgG2 isotype of Ab #6", "description": "(§1) 96-well NUNC MAXISORB plates are coated by overnight incubation at room temperature with 50 μl/well of 5 μg/ml of individual proteins. The proteins are recombinant human EGFR ectodomain, BSA, recombinant human ErbB3 ectodomain and TGF-α. The next morning, plates are washed 3 times with […] of PBST (0.05% Tween-20) in the BIOTEK plate washer. The wells are blocked for 1 hr at room temperature with 2% BSA in PBS and washed again as before. […] All samples are run in duplicate and incubated for 2 hrs at 4° C. on a plate shaker. The plates are washed again as before. 50 μl of human IgG-Fc detection antibody (HRP conjugated, Bethyl Laboratories, Inc; 1:75000 dilution in 2% BSA, PBST) is added and the plates are incubated for 1 hr at room temperature. The plates are washed again as before. 50 μL of SUPERSIGNAL ELISA Pico substrate is added and the plate is read on the FUSION plate reader (Packard/Perkin Elmer). The data is analyzed using the EXCEL program. Duplicate samples are averaged and the error bars represent the standard deviation between the two replicates."}, "[2]": {"target": "T2, recombinant human ErbB3 ectodomain (Homo sapiens, UniProt P21860)", "T2 construct": "recombinant human ErbB3 ectodomain", "assay": "binding specificity ELISA", "details": "IgG2 isotype of Ab #6", "description": "as §1"}, "[3]": {"target": "TGF-α (Homo sapiens, UniProt P01135)", "assay": "binding specificity ELISA", "details": "IgG2 isotype of Ab #6", "description": "as §1"}, "[4]": {"target": "BSA (Bos taurus, UniProt P02769)", "sequence (P02769 25-607)": "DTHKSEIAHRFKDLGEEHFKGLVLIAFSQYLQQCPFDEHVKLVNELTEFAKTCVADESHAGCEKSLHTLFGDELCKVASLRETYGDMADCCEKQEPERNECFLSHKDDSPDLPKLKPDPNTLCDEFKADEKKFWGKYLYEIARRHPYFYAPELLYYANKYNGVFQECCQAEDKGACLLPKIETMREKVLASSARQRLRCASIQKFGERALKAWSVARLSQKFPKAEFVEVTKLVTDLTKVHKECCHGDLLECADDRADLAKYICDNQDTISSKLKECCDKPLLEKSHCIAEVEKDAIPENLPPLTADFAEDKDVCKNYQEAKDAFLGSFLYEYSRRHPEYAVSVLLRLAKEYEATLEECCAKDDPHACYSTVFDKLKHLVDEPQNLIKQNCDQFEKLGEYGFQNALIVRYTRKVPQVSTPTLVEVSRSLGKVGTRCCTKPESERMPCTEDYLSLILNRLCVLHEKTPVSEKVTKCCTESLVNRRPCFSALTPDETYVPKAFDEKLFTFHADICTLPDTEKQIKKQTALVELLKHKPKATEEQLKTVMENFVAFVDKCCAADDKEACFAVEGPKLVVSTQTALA", "assay": "binding specificity ELISA", "set-up": "species or system bovine", "details": "IgG2 isotype of Ab #6", "description": "as §1"}, "[5]": {"test_system": "ErbB3 phosphorylation in OVCAR 8", "assay": "ErbB3 phosphorylation ELISA in ovarian tumor cell line", "type": "cell-based, human", "details": "IgG2 isotype", "description": "(§2) All ELISA reagents for the total and phospho-ErbB3 ELISAs are purchased from R&D Systems as DUOSET kits. 96-well NUNC MAXISORB plates are coated with 50 uL of an antibody and incubated overnight at room temperature. Next morning, plates are washed 3 times with […] in the BIOTEK plate washer with Dulbecco's phosphate buffered saline without calcium or magnesium (PBS) with added Tween detergent (PBST) (0.05% Tween-20). […] The plates are washed 3 times with […] in the BIOTEK plate washer with PBST (0.05% Tween-20). 50 μL of cell lysates and standards diluted in 50% Lysis buffer and 1% BSA are used in duplicates for further processing. Samples are incubated for 2 hrs at 4° C. on a plate shaker and washed as before. About 50 μl of a detection antibody diluted in 2% BSA, PBST is added and incubated for about 1 hr at room temperature. For phosphor-ErbB3, the detection antibody is directly conjugated to horseradish peroxidase (HRP) and incubated for 2 hrs at room temperature. The plate is washed as before. About 50 μl of Streptavidin-HRP is added and incubate for 30 min at room temperature (except for pErbB3). The plates are washed as before. About 50 μL of SUPERSIGNAL ELISA Pico (Thermo Scientific) substrate is added and the plate is read using a FUSION plate reader. The data are analyzed using EXCEL. […]"}, "[6]": {"test_system": "ErbB3 phosphorylation in OVCAR 5", "assay": "ErbB3 phosphorylation ELISA in ovarian tumor cell line", "type": "cell-based, human", "details": "IgG2 isotype", "description": "as §2"}, "[7]": {"target": "T3, AdrR cells expressing ErbB3 receptor (Homo sapiens, UniProt P21860)", "T3 construct": "host or cells: AdrR (NCI/AdrR) ovarian cancer cells", "assay": "HRG and BTC binding to AdrR cells by FACS", "type": "cell-based"}, "[8]": {"target": "ErbB3 (Homo sapiens, UniProt P21860)", "assay": "Kinetic Exclusion Assay (KinExA)", "type": "binding"}, "[9]": {"test_system": "renal (ACHN) xenograft", "assay": "xenograft tumor growth in nude mice", "type": "in vivo, mouse", "details": "600 ug Q3d versus 300 ug"}, "[10]": {"target": "T4, ErbB3 in MALME-3M xenografts (Homo sapiens, UniProt P21860)", "T4 construct": "ErbB3 expressed on MALME-3M melanoma cells; host or cells: MALME-3M melanoma cells", "assay": "total ErbB3 in MALME-3M xenografts in vivo", "set-up": "species or system mouse", "details": "MALME-3M xenograft, 24 hours post-injection, IgG1 or IgG2 isotype", "description": "T-cell deficient nu/nu mice (3-4 week old female mice originated at NIH; outbred; albino background) were purchased from Charles River Labs (Wilmington, Mass.). MALME-3M cells for implantation were grown in culture (RPMI media, 10% FBS, L-glutamine and antibiotics, 37° C., 5% CO2) to about 80% confluency before harvesting. Cells were kept on ice until implantation.\nThe tumors were measured (length by width) by digital caliper and the mice were pretreated with murine IgG2a (Sigma, M7769—5 mg) by intravenous injection to block in vivo depletion of tested antibodies by murine Fc receptors.\nFinal tumor measurements (L×W) were taken, the mice were euthanized by CO2 asphyxiation and tumors were excised, snap frozen in liquid nitrogen, and were stored at −80° C. (for biochemical analysis). Final tumor measurements were analyzed and graphed by tumor area and tumor volume as described, for example, in Burtrum et al., (2003) Cancer Res., 63:8912-8921. The data was also analyzed by “normalized” and “non-normalized” means for both tumor volume and tumor area. For the “normalization” of the data, at each time point of measurement, each tumor in each group was divided by the initial tumor size determined by caliper measurement."}},
  "data": [
    {"molecule": "B1", "values": [
      {"measurement": "binding in ELISA", "setting": "[1]", "value": "did not show any appreciable binding"},
      {"measurement": "binding in ELISA", "setting": "[2]", "value": "bound recombinant ErbB3"},
      {"measurement": "binding in ELISA", "setting": "[3]", "value": "did not show any appreciable binding"},
      {"measurement": "binding in ELISA", "setting": "[4]", "value": "did not show any appreciable binding"},
      {"measurement": "inhibition of ErbB3 phosphorylation", "setting": "[5]", "value": "inhibited ErbB3 phosphorylation"},
      {"measurement": "inhibition of ErbB3 phosphorylation", "setting": "[6]", "value": "inhibited ErbB3 phosphorylation"},
      {"measurement": "competition with BTC for binding to AdrR cells", "setting": "[7]", "value": "competes with HRG but not BTC"},
      {"measurement": "competition with HRG for binding to AdrR cells", "setting": "[7]", "value": "competes with HRG"},
      {"measurement": "dissociation rate", "setting": "[8]", "value": 0.00011, "unit": "s⁻¹"},
      {"measurement": "inhibition of tumor growth", "setting": "[9]", "value": "further elevated"},
      {"measurement": "downregulation of total ErbB3 in xenograft tumors", "setting": "[10]", "value": "significant downregulation of total ErbB3"}
    ]}
  ]
}
